According to PMC8346517, “The intervening domain is required for DNA-binding and functional identity of plant MADS transcription factors” (Nature Communications, 2021):

Target: the molecule itself
Assay: crystal structure; SEP3 MI at 6 mg/ml, without DNA; 0.2 M potassium sodium tartrate, 0.1 M bis-tris propane pH 7.5, 20% PEG 3350, 4 °C; space group C222(1), dimers formed by crystallographic symmetry

B1: SEP3^MI (MADS-box and I domain of …3, residues 1-90) (domain or fragment)
chain: not shown
notes: His6-MBP fusion from the vector pETM41, cleaved with TEV protease; residues 1-18 and the 17 C-terminal residues are disordered in the crystal; also called SEP3 MI domain; source: E. coli BL21 Codon Plus, purified (Ni-NTA, heparin, TEV cleavage, Ni-NTA, heparin)
**Q.** Does B1 bind?
**A.** binds
